Data published in a protein production outcome set (Wang et al. 2014).

Assay: label from the status in PepcDB records
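Further: failed if final PepcDB status was selected cloned or expressed and not failed if soluble or beyond.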

| Sequence | protein production |
| --- | --- |
| MAKKTKAKAAKAARPKAAKTAVAKAKPAKRGVAARSVAAKPPKVAPGELVTLLDFVRYAVSRFAEAGVVFAHGTTDPIAEAVFLVGEALHLHPDQFEMFASARVTTREAAAILGLIERRIGSRLPAAYLVNKIYMRGVPFYVDERVIVPRSYIGELLDSHFDGGDTSLIDAPEAIERVLDLCTGSGCLAILAAYAFPNATVDAVDLSKDALAVATRNVAEHRLDDRVSLYHGDLFGPLGDERYDLIITNPPYVDADGMASLPAECRAEPAMAFDGGDDGLTIIRRILAEAKHHLNPDGGLLCEVGRCRPQIEDEFPQLPLLWLDSEDSEAEVFWIAAADL | failed |
| MAKLAGQKVRIGGWVKTGRQQGKGTFAFLEVNDGSCPANLQVMVDSSLYDLSRLVATGTCVTVDGVLKIPPEGKGLKQSIELSVETVIAVGTVDP | not failed |
| MAKNAPRFVCQACGAVYPRWMGRCEACGEWNSIAEEAPAEALPKGQTGGRGGQRLSFVSLEGVGAPPPRLLTGIPELDRVAGGGLVAGSALLIGGDPGIGKSTLLLQAVAGLARGGARSVYISGEEAIDQVRLRALRLGLEKAPVDLAAATSVRDIVATLDSGEPPDVVVIDSIQTMYLDTLDSAPGTVAQVRAGSHELIRLAKRRGFVLFLVGHVTKEGQMAGPRVMEHMVDAVIYFEGERGHPFRILRAVKNRFGATDEIGVFEMSDAGLSEVPNPSALFLAERRGNVTGSCVFAGMEGTRPMLVEIQALVGPSAPGSARRAVVGWDGGRLAMVMAVLETRCGLALGGNDVYLNVAGGLRIGEPAADLAVAAALVSSFSGVPVPPDMVVFGEIGLSGEIRAVAHGDTRLKEAAKLGFDQALMPARPRDSGKRGGPGVKEGLRMREIGHLQDLVALLAPPENAGQGQRLEHHHHHH | not failed |
| MAKNDRKEPYPVINILECKACGRCLLACPKDVLFMSENLNARGYHYIEYKGEGCSGCASCYYTCPEPLALEIHIPLKKEEAE | failed |
| MAKNIQAIRGMNDYLPGETAIWQRIEGTLKNVLGSYGYSEIRLPIVEQTPLFKRAIGEVTDVVEKEMYTFEDRNGDSLTLRPEGTAGCVRAGIEHGLLYNQEQRLWYIGPMFRHERPQKGRYRQFHQLGCEVFGLQGPDIDAELIMLTARWWRALGISEHVTLELNSIGSLEARANYRDALVAFLEQHKEKLDEDCKRRMYTNPLRVLDSKNPEVQALLNDAPALGDYLDEESREHFAGLCKLLESAGIAYTVNQRLVRGLDYYNRTVFEWVTNSLGSQGTVCAGGRYDGLVEQLGGRATPAVGFAMGLERLVLLVQAVNPEFKADPVVDIYLVASGADTQSAAMALAERLRDELPGVKLMTNHGGGNFKKQFARADKWGARVAVVLGESEVANGTAVVKDLRSGEQTAVAQDSVAAHLRTLLG | not failed |
| MAKPPTTIEVSPTITLPQQDPSLMGVTVSINGADQRTDQALAKVTRDNQIVTLTASRDLRFLLQEVLEKQMTARGYMVGPNGPVNLQIIVSQLYADVSQGNVRYNIATKADIAIIATAQNGNKMTKNYRASYNVEGAFQASNKNIADAVNSVLTDTIADMSQDTSIHEFIKQNARLEHHHHHH | not failed |
| MAKPVLVRNTEEMMMNLDFPTYIKVAELGCSSGQNSFLAIFEIINTINVLCQHVNKNSPEIDCCLNDLPENDFNTTFKFVPFFNKELMITNKSSCFVYGAPGSFYSRLFSRNSLHLIHSSYALHWLSKVPEKLENNKGNLYITSSSPQSAYKAYLNQFQKDFTMFLRLRSEEIVSNGRMVLTFIGRNTLNDPLYRDCCHFWTLLSNSLRDLVFEGLVSESKLDAFNMPFYDPNVQELKEVIQKEGSFEINELESHGFDLGHYYEEDDFEAGRNEANGIRAVSEPMLIAHFGEEIIDTLFDKYAYHVTQHANCRNKTTVSLVVSLTKK | failed |
| MAKPVVETPLMRQYFQIKQKHPDAILLFRVGDFYETFSEDAIVASEILGITLTRRANGAAQFVELAGFPHHALDTYLPKLVRAGKRVAICDQLEDPKKTKTLVKRGITELVTPGVSTNDNVLSHKENNFLAAVSCGKEVFGISLLDISTGEFMAGQGNADYVEKLLTNYRPKEILVERSERSRFNDLFHWSGFIFDMEDWAFSSENNRLRVLKHFDLKSLKGFGLEELSMAVTAAGAVLNYLDLTQHHQLQHITSLSRLDENRYVRLDKFTVRSLELLSPMNEGGKSLLDIIDHTITPMGARRIRQWIVFPLKDPARIQARQRVVEFFFRHPEERAIIAEHLTEIGDLERLVTKGAMGRISPREMVQLRVALQALEPIKEVCTHADEENLRTLGGKLELCKELRDKILREVMPDAPAALGRGPVIAHGVDATLDELRALAYSGKDYLIKLQQQEIERTGIPSLKVAYNNVFGYYIEVRNTHKDKVPAEWIRKQTLVSAERYITEELKEYEAKILGAEEKIAALEGQLYALLVAELQRYVAPLQQDSQAVASLDCLLSFAESARRYRFICPVVDESFTIDIKAGRHPVIEQQLPADEPYIANDIYLDTDRQQVIIVTGPNMSGKSALLRQTALISLMAQIGSFVPAESARIGMVDSIFTRVGASDNISMGESTFMVEMQEASNILNNLTPRSLVLFDELGRGTSTYDGISIAWSIVEYIHDNPKAHPRTLFATHYHELNELEGQLDRVHNFNVSAREVDGKMLFLRKLEPGGSAHSFGIQVARLGGMPHHIVQRATDILHRLEQEREKIEEEEPKTKDTKRGPSEKVKNASPTLPRDEKGRSIDGYQLSFFQLDDPVLSQIREEILDLNIDNLTPLEALNKLNDIKRILRGY | failed |
| MAKSKKIVFTGGGTVGHVTLNLILIPKFLKDGWEVHYIGDKHGVEHEQIDKSGLDVTFHSIATGKLRRYFSWQNMLDVFKVGWGILQSIAIIAKIRPQALFSKGGFVSVPPVIASKLLRVPVYVHESDLSMGLANKIAYKFATTMFTTFEQSKTLVKTRHVGAITKVGMTRFDNSDQLDKIKEQFDEKLKTVLFIGGSAGAKVFN | failed |
| MAKSRLLLSELLDQLSFALCIVRNDYVIVKVNEYFESRVIFDGETMQGKNILELFPESADYLKRKIDTALVIESSSFSSWEQKPHLLPFKSSRPVSGEEEQMYQNLEVIPIHSEDGTIEHVCLCVYDVTIQASQQQ | not failed |
| MAKVSVYIIAYNEEQKIEPALQSVTWADEIVVIDSFSTDRTAEIARKYTDKVIQVPFEGFGKLRNSAIAATSHEWIFSLDTDERCTEEAKNEILAIIDSPDALDAYYVPRRNIFMGRWVKHSGWYPDYRQPQLFRRGAQVFTDEVVHESFTTIGRVGHMKNAIWQIPFRNFEQMISKIDRYSTLGAAKMTAKGVRPGMGKALFHALFAFFRMYILRLGILDGWAGFVIALYTFEGTFYRYAKQVEAARGWVMTRPEELER | failed |
| MAKVVKLEPISRETTVNTNDNLLSALLDSELHVLKECGGRGMCATCHVYIKEGMESLSPINKREQRTLEVITTANATSRLACQARVLGPGVVVELPSGMYVNAVEDIESLIGRRAEQDILHPLDGRVLVEAGKLITRTMITQLKDTQVQVGQYFANTSDALEHHHHHH | not failed |
| MAKYFGTDGIRGEVANSTITVEFTQKLGNAVGSLINQKNYPKFVIVGQDTRSSGGFLKFALVSGLNAAGIDVLDLGVVPTPVVAFMTVKHRAAAGFVITASHNKFTDNGIKLFSSNGFKLDDALEEEVEDMIDGDFIYQPQFKFGSYKILANAIDEYIESIYSRFAKFVNYKGKVVVDCAHGAASHNFEALLDKFGINYVSIASNPDGLNINVGCGATCVSNIKKAVKEQKADLGISLDGDADRIIIVDENGQEIDGDGILNILAQYSDICGGTNGIVGTQMTNMSYENHYRANKIPFIRSKVGDRYVLEDLVKYGYKIGGESSGHVINLNFGTTGDGLFTAIQLLAIFSQADKPVSEFKLQGELMQQTLINVPLTKKVAREDLQKVASDVNDVEKRLGNRGRVLLRPSGTEPVLRVMVEADDKSLATNEAEYLVEKVKQKLV | not failed |
| MAKYNEIAKKKREAKADRKRAIHGDPLTNKLKTRTPVPSVSGKRQRKLLRKWRREQKDMVEKGLVTMEDVEMASAQAASEDSKKSPRKFSVKKSLKLNKLNNKGKKKKNQKASGEKSADCMLE | failed |
| MALAMNRSITAITVTHNSAHTVRGALARLPPGVEIVCVDNASTDDLSTALSDLAVHRIDNPVNLGFGRACNIGAAAATGEYLLFINPDVRLGTDAVDALLQAAERYPNCGVFVPRTNTVDGRLWFREESEIDRLSGVSLPTRIRQVWGDCCVRFVNGGVFMIKRTLFLDTGGFDEDIFLYFEDDDLSYRLLQRDEPMILVSGAHAVHDIGTSVAQSTRSRIFRYRSKMRSEIHLRKKYGIAYSPFVDILRYSTKIGFYCLTLNRNRLINSLGRLIGIFDSILDRSRANRNGGYVALEHHHHHH | not failed |
